From patent publication US20220089727A1 (CHANGCHUN GENESCIENCE PHARMACEUTICAL, published 2022)
Changes are numbered by the printed parent chain.

T1: monkey CD47ECD-linker peptide-7his (monkey)
T1 construct: also called Monkey CD47-his
T1 chain: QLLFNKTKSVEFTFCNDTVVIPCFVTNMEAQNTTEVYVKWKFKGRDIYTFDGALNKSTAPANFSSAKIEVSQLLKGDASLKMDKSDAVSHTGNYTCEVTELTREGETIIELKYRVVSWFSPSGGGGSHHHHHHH

B1: 059-1.20.1 (antibody, mouse IgG1, V domains shown)
VH: EVQLQQSGPELVKPGASVNMSCKASGYTFTNYFLHWVKQKPGQGLEWIGYINPYNDGTNYNENFKGKATLTSDKSSSTAYMELSSLTSEDSAVYYCAKGGWFSMDYWGQGTSVTVSS
VL: DVVMTQTPLSLPVSLGDQASISCRSSQSLVHSNGKTYLQWYLQKPGQSPKLLIYKVSNRFSGVPDRFSGSGSGTDFTLKISRVEAEDLGVYFCSQSTHVYTFGGGTKLEIK
notes: also called 059-1.20.1 purified antibody
B2: 059-1.82.1 (antibody, mouse IgG3, V domains shown)
VH: B1 VH with N19K, F33V, L34M, N63K
VL: B1 VL
B3: B6H12 (commercialized CD47 antibody, purchased from Abcam, catalog No. ab3283) (antibody)
chain: EVQLVESGGDLVKPGGSLKLSCAASGFTFSGYGMSWVRQTPDKRLEWVATITSGGTYTYYPDSVKGRFTISRDNAKNTLYLQIDSLKSEDTAIYFCARSLAGNAMDYWGQGTSVTVSSGGGGSGGGGSGGGGSDIVMTQSPATLSVTPGDRVSLSCRASQTISDYLHWYQQKSHESPRLLIKFASQSISGIPSRFSGSGSGSDFTLSINSVEPEDVGVYYCQNGHGFPRTFGGGTKLEIK
B4: 059-1.30.1 (antibody, mouse IgG1, V domains shown)
VH: EVQLQQSGPELVKPGASVRMSCKASGYTFTNYVMHWVKQKPGQGLEWIGYINPYNDGTKYSEKFKGKATLTSDKSSITAYMELSSLTSEDSAVYYCAKGGLFTFDYWGQGTTLTVSS
VL: DVVMTQTPLSLPVSLGDQASISCRSSQSLVHSKGNTYLHWYLQKPGQSPKLLIYRVSNRFSGVPDRFSGSGSGTDFTLKISRVEAEDLGVYFCSQSTHVPFTFGSGTKLEIK
notes: also called 059-1.30.1 purified antibody
B5: 059-1.51.2 (antibody, mouse IgM, V domains shown)
VH: EVQLQQSGPELVKPGASVKMSCKASGYTFTNYVMHWMKQKPGQGLEWIGYINPYNDDTKYNEKFKDRATLTSDKSSSTAYMELSSLTSEDSAVYYCAKGGYYSMDYWGQGTSVTVSS
VL: B4 VL with R55K
notes: Mouse hybridoma antibody; light chain type kappa
B6: 059-1.43.1 (antibody, mouse IgG1, V domains shown)
VH: QVQLQQSGAELVRPGASVTLSCKASGYTFTDYEMHWVKQTPVHGLEWIGAIDPETGGTAYNQKFKGKATLTADKSSSTAYMELRSLTSEDSAVYYCTRGTPYAMDYWGQGTSVTVSS
VL: B4 VL with K33N, R55K, F101W, S105G
notes: also called 059-1.43.1 purified antibody
B7: 059-1.11.1 (antibody, mouse IgM, V domains shown)
VH: B6 VH
VL: B4 VL with K33N, R55K, D65E, F101W, S105G
notes: Mouse hybridoma antibody; the subclass paragraph gives the light chain type as kappa; also called 059-1.11.1 purified antibody
B8: 059-1.100.5 (antibody, mouse IgM, V domains shown)
VH: B6 VH with K63N
VL: B4 VL with K33N, R55K, F101W, S105G
notes: Mouse hybridoma antibody; light chain type kappa; also called 059-1.100.5 purified antibody

How the values were obtained:
[1] = biological target: T2, CD47 on the surface of Jurkat cells (human, UniProt Q08722 19-323); test: cell-based or functional assay
[2] = biological target: T2, CD47 on the surface of Jurkat cells; test: flow cytometry on Jurkat cells, hybridoma supernatant, anti-mouse IgG Fc FITC
[3] = biological target: T3, human CD47 (analyte in the Biacore assay) (human, UniProt Q08722 19-139, limits assumed); test: SPR (Biacore T200), antibody captured by anti-mouse Fc, human CD47 as analyte
T3 construct: also called human CD47 protein

[4] = biological target: T4, human CD47-linker peptide-hIgG1Fc (human); test: competition ELISA: CD47-hFc coated, antibody titrated against human SIRP-his (competitor), anti-His detection
T4 construct: also called Human CD47-hFc; human CD47-hFc

[5] = biological target: T5, human CD47ECD-linker peptide-7his (human, UniProt Q08722 19-139); test: ELISA, hCD47-his coated at 1 µg/ml, cell culture supernatant
T5 construct: also called hCD47-his; human CD47-his

[6] = biological target: T1, monkey CD47ECD-linker peptide-7his; test: ELISA, monkey CD47-his coated at 1 µg/ml, cell culture supernatant
[7] = biological target: T2, CD47 on the surface of Jurkat cells; test: cell-based or functional assay; remark: listed apart in the source
[8] = biological target: T4, human CD47-linker peptide-hIgG1Fc; test: competition ELISA: human CD47-hFc coated, blocked ligand human SIRP-his

Binder	phagocytic index [1]	MFI [2] [MFI]	Kd [3] [nM]	koff [3] [s⁻¹]	kon [3] [M⁻¹ s⁻¹]	EC50 [4] [nM]	OD450 [5] [OD450]	OD450 [6] [OD450]	Apoptotic rate (%) [7] [%]	IC50 (read off the curve) [8] [µg/mL]
B1	43 Jurkat cells phagocytized per 100 macrophages	15300	25.3	0.00548	217000	1190	4	4	33	~1
B2	74 Jurkat cells phagocytized per 100 macrophages	9550	14.2	0.00364	256000	1030	4	3.9	24	~1
B3	20 Jurkat cells phagocytized per 100 macrophages	–	27.5	0.00364	132000	–	–	–	8	~1
B4	70 Jurkat cells phagocytized per 100 macrophages	9950	30.1	0.0128	424000	1030	4	4	48	~1
B5	–	144	27.3	0.0101	370000	–	0.771	0.634	–	–
B6	79 Jurkat cells phagocytized per 100 macrophages	18500	28.3	0.00666	236000	850	4	4	37	~0.9
B7	–	6630	15.5	0.00402	260000	2340	3.67	4	–	–
B8	–	216	44	0.0069	157000	–	0.81	0.617	–	–
